In article doi:10.1101/2021.08.09.455663 one finds Kd data, which are given here for 2 substances.

The Kd is the free concentration of one partner at which half of the binding sites on the other are occupied at equilibrium, for simple one-to-one binding. A higher Kd goes with weaker binding.

Experiment [1] concerns the target phosphorylated STAT1 dimer (pSTAT1d) (UniProt P42224). As to the kind of experiment: BLI. Background: BLI is a label-free optical method that tracks binding on a fibre tip over time.
The target in experiment [2] is GST-tagged TgIST-R2 (Toxoplasma gondii). The experiment in a line: BLI.

In experiment [1], “TgIST-R2 peptide after GST removal (domain or fragment)” gave a Kd of 330 nM. This lies in the sub-micromolar range.
“phosphorylated STAT1 dimer (pSTAT1d) (from UniProt P42224 132-713) (domain or fragment)” registered a Kd in experiment [2] of 22 nM.
